Laboratory results taken from patent US20230270832A1, “MAGEA1 IMMUNOGENIC PEPTIDES, BINDING PROTEINS RECOGNIZING MAGEA1 IMMUNOGENIC PEPTIDES, AND USES THEREOF” (TScan Therapeutics, Inc., priority 2021, published 2023).

Assays:
[1] = molecular target: T1, epitope from MAGEA1 presented by HLA C*07:02 (Homo sapiens, UniProt P10321+P43355, DEL298-309); test: Identification of MAGEA1-reactive TCRs from pool of TCR-transduced T cells (CD137/CD69 sorting, TCR sequencing); assay type: cell-based; details: target cells transduced with MAGEA1 90-mer
T1 construct: an individual 90-amino acid fragments representing the top-scoring MAGEA1 tile from the screen; expressed in transfected cells; host or cells: MHC monoallelic C*07:02 HEK293T cells, lentivirally transduced with the MAGEA1 90-mer
Description: Ten orphan TCRs from this patient were pooled together to identify their cognate antigens using the genome-wide TargetScan technology. This screen identified MAGEA1 as a novel target. […] Note that the term “TCR32-39” may also be known as “TCR39” and the term “TCR32-41” may also be known as “TCR41”.
To identify the corresponding TCR from the pool of TCR-transduced T cells, Ml-IC monoallelic C*07:02 HEK293T cells engineered to express the MAGEA1 90mer were co-cultured with the pool of T cells at an E:T ratio of 1:1 for 16-24 hours. The T cells were mixed, collected by pipetting, and labeled with a CD137 microbead kit (Miltenyi) following the manufacturer's instructions. In brief, T cells were first stained with PE-labeled anti-CD137 and AF647-labeled anti-CD69 (BioLegend), washed, and then labeled with anti-PE microbeads. Labeled cells were enriched with an autoMACS® Pro separator (Miltenyi) and CD137 and CD69 double-positive cells were sorted on a MoFlo® Astrios™ Cell Sorter (Beckman Coulter). Genomic DNA was extracted from the sorted cells and the TCR expression cassette was PCR amplified and prepared for next generation sequencing (NGS).

[2] = test system: cancer cells that express MAGEA1; test: T cell recognition assay on cancer cell lines; assay type: cell-based, human; details: IFNγ release, CD137/CD69 double-positive staining
Procedure: To detect reactivity to cancer cell lines, wild-type cancer cell lines were seeded in a 96-well flat bottom plate and rested overnight at 37° C. in 5% CO2. On the following day, T cells were thawed, washed in complete RPMI-1640 medium, and added to the wells for an effector to target (E:T) ratio of 1:1 for INFγ measurement or 1:4 for flow cytometry analysis of activation-induced markers. The co-culture was incubated overnight. Cells were then harvested by pipetting, transferred to V-bottom 96-well plates, and centrifuged at 2,000 rpm for 2 minutes. The supernatant was collected for IFNγ measurement using a human IFNγ 3rd generation single-plex assay (Protein Simple). For flow cytometry analysis (Cytoflex S™ instrument, Beckman Coulter), cell pellets were washed with FACS buffer (PBS, 0.5% BSA, 2 mM EDTA) and stained for activation-induced markers, including PE-conjugated anti-CD137 (Miltenyi), AF647-conjugated anti-CD69 (Biolegend), and BV421-conjugated anti-CD8 (BioLegend).
Cancer cell lines were purchased from ATCC (Manassas, Vα.) and HEK293T cells were originally from Takara Bio (Shiga, Japan). All media were supplemented with […], except U266B1 which required 15% FBS, and 1% penicillin and incubated at 37° C. in 5% CO2. A101D (high MAGE-A1 expresing cells; TPM: 359), A2058 (medium MAGE-A1 expresing cells; TPM: 128), HS294T, and HEK293T cells were maintained in complete DMEM. SK-MEL-5 was cultured in complete EMEM, whereas U266B1, NCIH1437 and 786-0 required complete RPMI. Untransduced cancer cells were maintained in preparation for the T cell recognition assay, and 10^6 cells of each cell line were introduced with Incucyte® NucLight™ Red lentivirus reagent (Sartorius, Gottingen, Germany) Positively-labeled cells were selected using 1.5 ug/mL of puromycin over 72 hours.

B1: TCR 32-39: T cell receptor recognizing MAGEA1 epitope presented by HLA-C*07:02; alpha TRAV29-DV5/TRAJ43, beta TRBV18/TRBJ2-7; wild type, HM and MGTM sequences listed (protein)
TCR alpha: DQQVKQNSPSLSVQEGRISILNCDYTNSMFDYFLWYKKYPAEGPTFLISISSIKDKNEDGRFTVFLNKSAKHLSLHIVPSQPGDSAVYFCAASAQNNDMRFGAGTRLTVKPNIQNPEPAVYQLKDPRSQDSTLCLFTDFDSQINVPKTMESGTFITDKCVLDMKAMDSKSNGAIAWSNQTSFTCQDIFKETNATYPSSDVPCDATLTEKSFETDMNLNFQNLLVMVLRILLLKVAGFNLLMTLRLWSS
TCR beta: NAGVMQNPRHLVRRRGQEARLRCSPMKGHSHVYWYRQLPEEGLKFMVYLQKENIIDESGMPKERFSAEFPKEGPSILRIQQVVRGDSAAYFCASSPSYEQYFGPGTRLTVTEDLRNVTPPKVSLFEPSKAEIANKQKATLVCLARGFFPDHVELSWWVNGKEVHSGVCTDPQAYKESNYSYCLSSRLRVSATFWHNPRNHFRCQVQFHGLSEEDKWPEGSPKPVTQNISAEAWGRADCGITSASYQQGVLSATILYEILLGKATLYAVLVSTLVVMAMVKRKNS
recognition of MAGEA1 epitope / identification as MAGEA1-reactive TCR ([1]; listed as HN-32-39): recognizing the same novel epitope from MAGEA1 presented by HLA C*07:02
recognition of MAGEA1 epitope / identification as MAGEA1-reactive TCR ([1]; listed as TCR 39): hits
recognition of cancer cells [2]: recognize cancer cells that express MAGEA1
recognition of cancer cells ([2]; listed as TCR 39): recognize
